According to the supplement of paper PMC9112550, “Optimization of the antimicrobial peptide Bac7 by deep mutational scanning” (BMC Biology, 2022):

System: Escherichia coli TOP10
Assay: shrunken log2 fold change of peptide-encoding DNA abundance (4.5 h post-induction vs induction); higher = less antimicrobial activity (less host growth inhibition)
Conditions: time post-induction: 4.5 h; library: site-saturation at positions 5, 18, 19, 20
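Note: peptides expressed intracellularly from a pBAD plasmid library in pooled LB shake-flask culture, induced with 0.3% L-arabinose, DNA abundance read by NGS, three biological replicates, DESeq2 with apeglm shrinkage.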

| Sequence | shrunken log2 fold change |
| --- | --- |
| RRIRWRPPRLPRPRPRPFHHPRP | -0.077 |
| RRIRWRPPRLPRPRPRPFISPRP | -0.174 |
| RRIRWRPPRLPRPRPRPFIVPRP | -0.325 |
| RRIRWRPPRLPRPRPRPFKMPRP | -0.0125 |
| RRIRWRPPRLPRPRPRPFKNPRP | -0.274 |
| RRIRWRPPRLPRPRPRPFLPPRP | -0.687 |
| RRIRWRPPRLPRPRPRPFLQPRP | -0.499 |
| RRIRWRPPRLPRPRPRPFNIPRP | -0.715 |
| RRIRWRPPRLPRPRPRPFQDPRP | -0.496 |
| RRIRWRPPRLPRPRPRPFQNPRP | -0.235 |
| RRIRWRPPRLPRPRPRPFRAPRP | -0.112 |
| RRIRWRPPRLPRPRPRPFRPPRP | -0.165 |
| RRIRWRPPRLPRPRPRPFRVPRP | -0.0169 |
| RRIRWRPPRLPRPRPRPFVIPRP | -0.396 |
| RRIRWRPPRLPRPRPRPFVTPRP | -0.215 |
| RRIRWRPPRLPRPRPRPFWCPRP | 0.193 |
| RRIRWRPPRLPRPRPRPFYSPRP | -0.681 |
| RRIRWRPPRLPRPRPRPGANPRP | 0.0566 |
| RRIRWRPPRLPRPRPRPGAPPRP | 0.641 |
| RRIRWRPPRLPRPRPRPGCAPRP | 0.948 |
| RRIRWRPPRLPRPRPRPGCPPRP | 0.0461 |
| RRIRWRPPRLPRPRPRPGDVPRP | 0.0583 |
| RRIRWRPPRLPRPRPRPGEAPRP | 0.799 |
| RRIRWRPPRLPRPRPRPGECPRP | 0.00474 |
| RRIRWRPPRLPRPRPRPGEHPRP | 0.232 |

| Sequence | shrunken log2 fold change |
| --- | --- |
| RRIRWRPPRLPRPRPRPGFEPRP | 0.427 |
| RRIRWRPPRLPRPRPRPGGPPRP | 0.367 |
| RRIRWRPPRLPRPRPRPGGQPRP | -0.0831 |
| RRIRWRPPRLPRPRPRPGGRPRP | 0.418 |
| RRIRWRPPRLPRPRPRPGGYPRP | 0.215 |
| RRIRWRPPRLPRPRPRPGHGPRP | 0.214 |
| RRIRWRPPRLPRPRPRPGHRPRP | 0.315 |
| RRIRWRPPRLPRPRPRPGICPRP | 0.146 |
| RRIRWRPPRLPRPRPRPGKVPRP | -0.132 |
| RRIRWRPPRLPRPRPRPGLLPRP | 0.403 |
| RRIRWRPPRLPRPRPRPGLNPRP | 0.0915 |
| RRIRWRPPRLPRPRPRPGNKPRP | -0.0586 |
| RRIRWRPPRLPRPRPRPGNQPRP | -0.225 |
| RRIRWRPPRLPRPRPRPGPTPRP | 0.487 |
| RRIRWRPPRLPRPRPRPGPYPRP | -0.161 |
| RRIRWRPPRLPRPRPRPGQAPRP | 1.06 |
| RRIRWRPPRLPRPRPRPGQWPRP | 0.032 |
| RRIRWRPPRLPRPRPRPGRDPRP | 0.122 |
| RRIRWRPPRLPRPRPRPGRNPRP | -0.000528 |
| RRIRWRPPRLPRPRPRPGSYPRP | -0.0955 |
| RRIRWRPPRLPRPRPRPGTCPRP | 0.0934 |
| RRIRWRPPRLPRPRPRPGTNPRP | 0.243 |
| RRIRWRPPRLPRPRPRPGVDPRP | 0.371 |
| RRIRWRPPRLPRPRPRPGVHPRP | 0.135 |
| RRIRWRPPRLPRPRPRPGWMPRP | 0.366 |

| Sequence | shrunken log2 fold change |
| --- | --- |
| RRIRWRPPRLPRPRPRPGYHPRP | -0.263 |
| RRIRWRPPRLPRPRPRPGYLPRP | 0.0065 |
| RRIRWRPPRLPRPRPRPGYPPRP | -0.251 |
| RRIRWRPPRLPRPRPRPHCKPRP | -0.233 |
| RRIRWRPPRLPRPRPRPHCQPRP | -0.102 |
| RRIRWRPPRLPRPRPRPHEWPRP | 0.0987 |
| RRIRWRPPRLPRPRPRPHFLPRP | 1.46 |
| RRIRWRPPRLPRPRPRPHFVPRP | -0.438 |
| RRIRWRPPRLPRPRPRPHGEPRP | 0.135 |
| RRIRWRPPRLPRPRPRPHHLPRP | -0.71 |
| RRIRWRPPRLPRPRPRPHIDPRP | -0.466 |
| RRIRWRPPRLPRPRPRPHKVPRP | -0.431 |
| RRIRWRPPRLPRPRPRPHLLPRP | -0.66 |
| RRIRWRPPRLPRPRPRPHMDPRP | -0.18 |
| RRIRWRPPRLPRPRPRPHMQPRP | -0.0363 |
| RRIRWRPPRLPRPRPRPHMWPRP | -0.138 |
| RRIRWRPPRLPRPRPRPHNDPRP | -0.324 |
| RRIRWRPPRLPRPRPRPHPGPRP | -0.0288 |
| RRIRWRPPRLPRPRPRPHQDPRP | 0.134 |
| RRIRWRPPRLPRPRPRPHQMPRP | -0.34 |
| RRIRWRPPRLPRPRPRPHREPRP | -0.0345 |
| RRIRWRPPRLPRPRPRPHTKPRP | 0.0624 |
| RRIRWRPPRLPRPRPRPHTPPRP | 0.0133 |
| RRIRWRPPRLPRPRPRPHVKPRP | -0.439 |
| RRIRWRPPRLPRPRPRPICHPRP | -0.0597 |

| Sequence | shrunken log2 fold change |
| --- | --- |
| RRIRWRPPRLPRPRPRPIDNPRP | -0.406 |
| RRIRWRPPRLPRPRPRPIFTPRP | -0.173 |
| RRIRWRPPRLPRPRPRPIGFPRP | 0.0993 |
| RRIRWRPPRLPRPRPRPIGGPRP | -0.0334 |
| RRIRWRPPRLPRPRPRPIIEPRP | -0.273 |
| RRIRWRPPRLPRPRPRPIKDPRP | 0.211 |
| RRIRWRPPRLPRPRPRPIKNPRP | 0.136 |
| RRIRWRPPRLPRPRPRPIMCPRP | -0.0807 |
| RRIRWRPPRLPRPRPRPINWPRP | 0.0481 |
| RRIRWRPPRLPRPRPRPIPIPRP | -0.12 |
| RRIRWRPPRLPRPRPRPIPKPRP | 0.102 |
| RRIRWRPPRLPRPRPRPIQCPRP | -0.0122 |
| RRIRWRPPRLPRPRPRPIQEPRP | -0.0126 |
| RRIRWRPPRLPRPRPRPIRIPRP | -0.324 |
| RRIRWRPPRLPRPRPRPIRWPRP | 0.0855 |
| RRIRWRPPRLPRPRPRPISMPRP | -0.209 |
| RRIRWRPPRLPRPRPRPITSPRP | -0.122 |
| RRIRWRPPRLPRPRPRPIVRPRP | 0.326 |
| RRIRWRPPRLPRPRPRPIWWPRP | 0.314 |
| RRIRWRPPRLPRPRPRPKASPRP | -0.00939 |
| RRIRWRPPRLPRPRPRPKCVPRP | -0.0153 |
| RRIRWRPPRLPRPRPRPKDHPRP | 0.182 |
| RRIRWRPPRLPRPRPRPKFLPRP | -0.0144 |
| RRIRWRPPRLPRPRPRPKHFPRP | -0.0487 |
| RRIRWRPPRLPRPRPRPKHIPRP | -0.41 |

| Sequence | shrunken log2 fold change |
| --- | --- |
| RRIRWRPPRLPRPRPRPKIFPRP | -0.249 |
| RRIRWRPPRLPRPRPRPKINPRP | -0.245 |
| RRIRWRPPRLPRPRPRPKIWPRP | 0.272 |
| RRIRWRPPRLPRPRPRPKLGPRP | 0.0872 |
| RRIRWRPPRLPRPRPRPKLNPRP | 0.318 |
| RRIRWRPPRLPRPRPRPKLPPRP | 0.247 |
| RRIRWRPPRLPRPRPRPKMHPRP | 0.386 |
| RRIRWRPPRLPRPRPRPKMPPRP | 1.71 |
| RRIRWRPPRLPRPRPRPKNNPRP | -0.136 |
| RRIRWRPPRLPRPRPRPKPRPRP | 0.236 |
| RRIRWRPPRLPRPRPRPKQNPRP | 0.3 |
| RRIRWRPPRLPRPRPRPKRFPRP | 0.729 |
| RRIRWRPPRLPRPRPRPKRYPRP | 0.0352 |
| RRIRWRPPRLPRPRPRPKSFPRP | 0.0955 |
| RRIRWRPPRLPRPRPRPKVDPRP | 0.0401 |
| RRIRWRPPRLPRPRPRPKWMPRP | 0.242 |
| RRIRWRPPRLPRPRPRPLAYPRP | 0.0203 |
| RRIRWRPPRLPRPRPRPLCLPRP | 0.949 |
| RRIRWRPPRLPRPRPRPLCVPRP | 0.0447 |
| RRIRWRPPRLPRPRPRPLEPPRP | 0.676 |
| RRIRWRPPRLPRPRPRPLHGPRP | 0.131 |
| RRIRWRPPRLPRPRPRPLHQPRP | 0.0809 |
| RRIRWRPPRLPRPRPRPLICPRP | 0.803 |
| RRIRWRPPRLPRPRPRPLIKPRP | 0.114 |
| RRIRWRPPRLPRPRPRPLLNPRP | 0.00531 |

| Sequence | shrunken log2 fold change |
| --- | --- |
| RRIRWRPPRLPRPRPRPLPQPRP | 0.248 |
| RRIRWRPPRLPRPRPRPLPRPRP | 0.534 |
| RRIRWRPPRLPRPRPRPLQRPRP | 0.189 |
| RRIRWRPPRLPRPRPRPLRGPRP | 1.01 |
| RRIRWRPPRLPRPRPRPLSSPRP | -0.0482 |
| RRIRWRPPRLPRPRPRPLVEPRP | 0.2 |
| RRIRWRPPRLPRPRPRPLWDPRP | 0.235 |
| RRIRWRPPRLPRPRPRPLWFPRP | 0.134 |
| RRIRWRPPRLPRPRPRPLYIPRP | -0.872 |
| RRIRWRPPRLPRPRPRPLYWPRP | -0.34 |
| RRIRWRPPRLPRPRPRPMAAPRP | 0.318 |
| RRIRWRPPRLPRPRPRPMCAPRP | 0.713 |
| RRIRWRPPRLPRPRPRPMCEPRP | -0.0562 |
| RRIRWRPPRLPRPRPRPMCKPRP | -0.0527 |
| RRIRWRPPRLPRPRPRPMDEPRP | 0.0255 |
| RRIRWRPPRLPRPRPRPMDMPRP | -0.0589 |
| RRIRWRPPRLPRPRPRPMDTPRP | 0.128 |
| RRIRWRPPRLPRPRPRPMEMPRP | 0.0108 |
| RRIRWRPPRLPRPRPRPMGEPRP | 0.0775 |
| RRIRWRPPRLPRPRPRPMGNPRP | -0.0828 |
| RRIRWRPPRLPRPRPRPMGRPRP | -0.012 |
| RRIRWRPPRLPRPRPRPMHKPRP | 0.219 |
| RRIRWRPPRLPRPRPRPMIAPRP | 0.00921 |
| RRIRWRPPRLPRPRPRPMIGPRP | 0.384 |
| RRIRWRPPRLPRPRPRPMKKPRP | -0.0863 |
